Experimental findings from patent publication US20140057807A1 (UNIVERSITY OF CHICAGO, published 2014) are described below.

B1: SEQ ID NO 233 (designed binder)
chain: VSDVPRDLEVVAATPTSLLISWDAPAVTVRYYWIQYYIYYSRGTQEFTVPGSKSTATISGLKPGVNYSIGVQAVQAYFGEPISINYRT
B2: SEQ ID NO 246 (designed binder)
chain: NVSPPRRARVTDATETTITISWRTKTETITYFYVAADPTEDGKIQRTIKPDVRSYTITGLQPGTYYTIHLRTLYYLVAVPVVIDAST
B3: SEQ ID NO 261 (designed binder)
chain: NVSPPRRARVTDATETTITISWRTKTETITYFKVRAYPAYNYGGWSIQRTIKPDVRSYTITGLQPGTYYSIYLDTLYLGAYWYPVVIDAST
B4: SEQ ID NO 255 (designed binder)
chain: NVSPPRRARVTDATETTITISWRTKTETITEFFVMAEPYYGEGYYIQRTIKPDVRSYTITGLQPGTSYSINLYTLKRPYLYPVVIDAST
B5: SEQ ID NO 252 (designed binder)
chain: NVSPPRRARVTDATETTITISWRTKTETITSFRVDAGPGVAGSIQRTIKPDVRSYTITGLQPGTYYQIQLAALAYGYYPVVIDAST
B6: SEQ ID NO 238 (designed binder)
chain: VSDVPRDLEVVAATPTSLLISWDAPAVTVRIYYIAYGYYPGWGRAGSQEFTVPGSKSTATISGLKPGVTYGISVSAVEERRKVPISINYRT
B7: SEQ ID NO 231 (designed binder)
chain: VSDVPRDLEVVAATPTSLLISWDAPAVTVRKYYIGYKLQVMEPDQEFTVPGSKSTATISGLKPGVEYWIGVDAVSYYWGFDPISINYRT
B8: SEQ ID NO 245 (designed binder)
chain: NVSPPRRARVTDATETTITISWRTKTETITDFGVVASPYLGQGIQRTIKPDVRSYTITGLQPGTAYSIKLHTLHVHDYYPVVIDAST
B9: SEQ ID NO 237 (designed binder)
chain: VSDVPRDLEVVAATPTSLLISWDAPAVTVRNYSIKYKYIPYVSHQEFTVPGSKSTATISGLKPGVTYSIRVQAVYYLIERYPISINYRT
B10: SEQ ID NO 260 (designed binder)
chain: NVSPPRRARVTDATETTITISWRTKTETITYFYVSAYPYYVAYDIQRTIKPDVRSYTITGLQPGTYYDINLSTLSYSDNSPVVIDAST
B11: SEQ ID NO 259 (designed binder)
chain: NVSPPRRARVTDATETTITISWRTKTETITYFSVYANPMYPFYIQRTIKPDVRSYTITGLQPGTYYEIYLGTLYYFATYPVVIDAST
B12: SEQ ID NO 244 (designed binder)
chain: NVSPPRRARVTDATETTITISWRTKTETITRFFVSAVPFETGTIQRTIKPDVRSYTITGLQPGTAYDIALYTLFGYYYYPVVIDAST
B13: SEQ ID NO 263 (designed binder)
chain: NVSPPRRARVTDATETTITISWRTKTETITQFWVLAGPSVWTGRMSIQRTIKPDVRSYTITGLQPGTTYYIGLYTLQYYEYSPVVIDAST
B14: SEQ ID NO 243 (designed binder)
chain: NVSPPRRARVTDATETTITISWRTKTETITLFEVYADPQVSNGTYIQRTIKPDVRSYTITGLQPGTYYRIGLYTLSDYEKSTPVVIDAST
B15: SEQ ID NO 230 (designed binder)
chain: VSDVPRDLEVVAATPTSLLISWDAPAVTVRNYYIGYRYTVANWCYQEFTVPGSKSTATISGLKPGVSYWITAKAVVFEGDHPISINYRT
B16: SEQ ID NO 248 (designed binder)
chain: NVSPPRRARVTDATETTITISWRTKTETITYFGVGADPAMYIEYPYIQRTIKPDVRSYTITGLQPGTQYGIYLTTLSQASDYPVVIDAST
B17: SEQ ID NO 232 (designed binder)
chain: VSDVPRDLEVVAATPTSLLISWDAPAVTVRGYGIYYGDTGDTQEFTVPGSKSTATISGLKPGVMYSIVVFAVEWYMWQPISINYRT
B18: SEQ ID NO 234 (designed binder)
chain: VSDVPRDLEVVAATPTSLLISWDAPAVTVRSYRIMYSGYYAWEYSRQEFTVPGSKSTATISGLKPGVIYAIHVSAVVTNWEGPISINYRT
B19: SEQ ID NO 229 (designed binder)
chain: VSDVPRDLEVVAATPTSLLISWDAPAVTVRTYYIGYGMYTYGQEFTVPGSKSTTTISGLKPGVVYDIYVWAVGFGRYVDPISINYRT
B20: SEQ ID NO 264 (designed binder)
chain: NVSPPRRARVTDATETTITISWRTKTETITTFRVWARPYLYYWIQRTIKPDVRSYTITGLQPGTHYDIGLSTLSSTWYYPVVIDAST
B21: SEQ ID NO 254 (designed binder)
chain: NVSPPRRARVTDATETTITISWRTKTETITYFSVEAYPRWYALIQRTIKPDVRSYTITGLQPGTSYYIYLWTLMMDTSSPVVIDAST
B22: SEQ ID NO 241 (designed binder)
chain: NVSPPRRARVTDATETTITISWRTKTETITSFNVVAYPSSQDGIQRTIKPDVRSYTITGLQPGTGYQIHLTTLGHLSFSPVVIDAST
B23: SEQ ID NO 235 (designed binder)
chain: VSDVPRDLEVVAATPTSLLISWDAPAVTVRDYWIYYRYSWPYGSQEFTVPGSKSTATISGLKPGVTYDIQVEAVYGSESGPISINYRT
B24: SEQ ID NO 253 (designed binder)
chain: NVSPPRRARVTDATETTITISWRTKTETITRFYVSAQPRFYYYNIQRTIKPDVRSYTITGLQPGTDYTIGLYTLGVYMHYPVVIDAST
B25: SEQ ID NO 258 (designed binder)
chain: NVSPPRRARVTDATETTITISWRTKTETITYFSVLAHPLEVSSYSIQRTIKPDVRSYTITGLQPGTGYRIFLSTLRWYYGMPVVIDAST
B26: SEQ ID NO 262 (designed binder)
chain: NVSPPRSARVTDATETTITISWRTKTETITYFVVGAFPAYSAHVDIQRTIKPDVRSYTITGLQPGTGYIINLETLINATGYPVVIDAST
B27: SEQ ID NO 257 (designed binder)
chain: NVSPPRRARVTDATETTITISWRTKTETITTFDVYAYPGYGGSYWSIQRTIKPDVRSYTITGLQPGTSYEIELETLHYSHAYPVVIDAST
B28: SEQ ID NO 266 (designed binder)
chain: NVSPPRRARVTDATETTITISWRTKTETITRFSVLAYPSKRTTYTPIQRTIKPDVRSYTITGLQPGTGYTIRLYTLSPYYWVYPVVIDAST
B29: SEQ ID NO 265 (designed binder)
chain: NVSPPRRARVTDATETTITISWRTKTETITYFHVNAQPSSPPWIQRTIKPDVRSYTITGLQPGTYYGISLYTLSWRGEYHPVVIDAST
B30: SEQ ID NO 249 (designed binder)
chain: NVSPPRRARVTDATETTITISWRTKTETITYFGVRAYPTYRSSIQRTIKPDVRSYTITGLQPGTLYRISLYTLDSAGYNPVVIDAST
B31: SEQ ID NO 242 (designed binder)
chain: NVSPPRRARVTDATETTITISWRTKTETITYFTVDAAPSLVVDNIQRTIKPDVRSYTITGLQPGTYYIILLYTLYNYDALPVVIDAST
B32: SEQ ID NO 251 (designed binder)
chain: NVSPPRRARVTDATETTITISWRTKTETITEFDVGADPGKGHAIQRTIKPDVRSYTITGLQPGTSYLIGLRTLNRVLHYPVVIDAST
B33: SEQ ID NO 240 (designed binder)
chain: NVSPPRRARVTDATETTITISWRTKTETITDFEVAALPMVSTGIQRTIKPDVRSYTITGLQPGTTYYISLYTLDDDGPGTPVVIDAST
B34: SEQ ID NO 236 (designed binder)
chain: VSDVPRDLEVVAATPTSLLISWDAPAVTVRYYYGIYYAGKAGGDYFITQEFTVPGSKSTATISGLKPGVEYRIYVAAVGYHYTPPISINYRT
B35: SEQ ID NO 256 (designed binder)
chain: NVSPPRRARVTDATETTITISWRTKTETITSFYVMAQPTNYYGQSTYIQRTIKPDVRSYTITGLQPGTYYGIQLYTLMYRASAPVVIDAST
B36: SEQ ID NO 250 (designed binder)
chain: NVSPPRRARVTDATETTITISWRTKTETITQFSVYAYPARSKYHIQRTIKPDVRSYTITGLQPGTGYRIYLQTLGGYSDEPVVIDAST
B37: SEQ ID NO 267 (designed binder)
chain: NVSPPRRARVTDATETTITISWRTKTETITWFYVSAFPLLVDGIQRTIKPDVRSYTITGLQPGTYYGINLYTLSSYPVVIDAST
B38: SEQ ID NO 268 (designed binder)
chain: NVSPPRRARVTDATETTITISWRTKTETITYFYVYAKPRYINSIQRTIKPDVRSYTITGLQPGTDYSIYLDTLYWGGEYGPVVIDAST

T1 sequence (P02768 25-609 limits assumed): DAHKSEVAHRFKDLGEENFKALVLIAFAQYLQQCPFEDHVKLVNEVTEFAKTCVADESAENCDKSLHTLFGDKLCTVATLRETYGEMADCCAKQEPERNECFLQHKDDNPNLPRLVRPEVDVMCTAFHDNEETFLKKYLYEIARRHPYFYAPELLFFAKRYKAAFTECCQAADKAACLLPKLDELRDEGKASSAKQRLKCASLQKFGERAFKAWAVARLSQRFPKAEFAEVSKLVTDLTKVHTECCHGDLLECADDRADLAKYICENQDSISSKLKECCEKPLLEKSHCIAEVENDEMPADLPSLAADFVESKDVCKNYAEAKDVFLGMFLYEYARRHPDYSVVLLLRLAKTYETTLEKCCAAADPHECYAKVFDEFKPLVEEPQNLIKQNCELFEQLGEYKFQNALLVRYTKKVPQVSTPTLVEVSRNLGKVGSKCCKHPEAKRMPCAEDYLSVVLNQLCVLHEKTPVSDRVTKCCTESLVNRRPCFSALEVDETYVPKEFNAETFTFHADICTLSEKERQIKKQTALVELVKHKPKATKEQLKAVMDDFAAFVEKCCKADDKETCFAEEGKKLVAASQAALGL

The assay concerns the target T1, human serum albumin (human, UniProt P02768 25-609).
T1 construct: also called HSA
As to the kind of experiment: cradle library selection hit.
For the molecule B1, the binding result was “binds”.

For the molecule B2, the binding result is given as “binds”.

Regarding B3, the binding result was “binds”.

Regarding B4, the binding result is listed as “binds”.

B5: the binding result is on record as “binds”.

For B6, the binding result is “binds”.

For B7, the binding result was “binds”.

As to B8, the binding result was “binds”.

For the molecule B9, the binding result is on record as “binds”.

Consider B10, for which the binding result is “binds”.

As for B11, the binding result is given as “binds”.

As for B12, the binding result is “binds”.

Take B13: the binding result is listed as “binds”.

For B14, the binding result is listed as “binds”.

B15: the binding result was “binds”.

On to B16, for which the binding result is “binds”.

B17: the binding result is “binds”.

For the molecule B18, the binding result is “binds”.

Consider B19, for which the binding result is reported as “binds”.

As for B20, the binding result is given as “binds”.

As for B21, the binding result was “binds”.

For the molecule B22, the binding result is reported as “binds”.

On to B23, for which the binding result is “binds”.

With B24, the binding result is “binds”.

B25: the binding result was “binds”.

As to B26, the binding result is reported as “binds”.

For the molecule B27, the binding result is on record as “binds”.

For B28, the binding result is given as “binds”.

As for B29, the binding result was “binds”.

As for B30, the binding result is recorded as “binds”.

With B31, the binding result is recorded as “binds”.

For the molecule B32, the binding result is on record as “binds”.

B33: the binding result was “binds”.

Turning to B34, the binding result is reported as “binds”.

For the molecule B35, the binding result is listed as “binds”.

Take B36: the binding result is recorded as “binds”.

Regarding B37, the binding result is “binds”.

For B38, the binding result was “binds”.
